Measured values reported in publication PMC12589307, “^1H, ^13C, and ^15N resonance assignment of the C terminal region of the disordered postsynaptic scaffold protein GKAP” (Biomolecular Nmr Assignments, 2025).
Where no end group is shown, it is not given here.

Biological target: T1, Shank1-PDZ (UniProt Q9WV48, residues 654-768) (UniProt Q9WV48 654-768)
T1 construct: Shank1 PDZ domain, UniProt Q9WV48, residues 654-768; 100% identical with the human homolog Q9Y566 residues 654-768; also called Shank-PDZ; source: production and purification by the protocol of Sánta et al. 2022
T1 sequence (looked up): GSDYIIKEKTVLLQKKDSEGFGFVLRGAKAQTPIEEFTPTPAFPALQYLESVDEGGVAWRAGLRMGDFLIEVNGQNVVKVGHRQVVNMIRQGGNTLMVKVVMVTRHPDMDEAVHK
Experiment: BLI; BLItz instrument, NTA biosensors; His-tagged GKAP-Ct43 immobilised as bait at 200 nM; Shank1-PDZ at 4, 2, 1 and 0.5 uM; 50 mM NaPi pH 7.4, 20 mM NaCl, 20 mM imidazole, 0.1% BSA, 0.02% Tween20; room temperature (no temperature control); global fit, average of three independent measurements
Conditions: both partners purified

Kd: 3.1 ± 0.7 µM
B1: GKAP-Ct43, C-terminal 43 residues of Rattus norvegicus GKAP, with 6xHis tag kept (domain or fragment)
chain: GSHMSSQRQEARKRLMAAKRAASVRQNSATESAESIEIYIPEAQTRL
modifications: also: 6xHis tag named, not in given chain
notes: vector-derived residues that remain N-terminal after TEV cleavage; in the uncleaved BLI construct they follow the 6xHis tag and the TEV site; Guanylate kinase-associated protein GKAP (rGKAP1a), Rattus norvegicus, UniProt P97836, residues 950-992; 100% identical to human DLGAP1 O14490 residues 935-977; Modified pET-15b vector with 6xHis tag and TEV site; also called rGKAP1a C-terminus; source: TEV …
